# Assay results reported in the nanobody polyreactivity screen of Harvey et al. (2022).
# Experiment: yeast display, Sf9 membrane polyspecificity reagent, FACS + sequencing; frameworks hold sequencing errors
# In short: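 Synthetic nanobody libraries on Saccharomyces cerevisiae BJ5465 were galactose-induced for 36–48 hours, stained 1 hour at 4 °C with 10% biotinylated, detergent-solubilized Sf9 membrane reagent and enriched on streptavidin microbeads. FACS then separated cells into low and high (top ~1%) gates by anti-HA (expression) and streptavidin (reagent binding) fluorescence. Genes were colony-PCR amplified, MiSeq 2 × 250 sequenced and CDR-length filtered. A clone's polyreactivity label is that of its gate of origin.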
row,Sequence,polyreactivity (PSR sort gate)
1,QVQLVESGGGIVQAGGSLRLSCAASGSTLDDYVMGWYRHAPGKDRQLVAAISSSGSGTYYADSVKGRFTISRDNAKNTVYLQMNSLKQEDTAVYYCAAAYSYSGYGYYTYDYWGLGTQVTVSS,low polyreactivity
2,QVQLVESGGGIVQAGGSLRLSCAASGSTLQYNAMGWYRQAPGKERELVAAITRISGSTYYADSVKGRFTISRDNAKNTVYLQMNSLKPEHTAVYYCAAVSYYYSGYDYWGQGTEVTVSS,high polyreactivity
3,QVQLVESGGGIVQAGGSLRLSCAASGTFVYYAMVMYRQPPGKERELVAGISDGSSTNYADSVKGRFTISRDNAKNTVYLQMNSLKPEDTAVYYCAKRYYSSGREHGYWGQGTQVTVSS,low polyreactivity
4,QVQLVESGGGIVQAGGSLRLSCAASGTTIEYNAMGWYRQAPGKERELVASSTNYADSVKGRFTISRDNAKNTVYFQMNILKPEDTAVYYCAREQGVNRNHDYWGQGTQVTVSS,low polyreactivity
5,QVQLVESGGGIVQAGGSLRLSCAASGYIFDHYAMGWYRQAPGKERELVAAISRSAGSTYYADSVKGRFTISRDNAKNTVYLQMKSLKPEDTAVYYCNAVVAVRSWRKYEYWGQGTQVTVSS,high polyreactivity
6,QVQLVESGGGIVQAGGSLRLSCASSGFTFNLYAMGWYRHAPGNERELVAAINWSGGTYYADSVKGRFTISRDNAKNNVYLQMKILKPEDTAVYYCNARYVYHSSFAGFDYWGQGTQVTVSS,low polyreactivity
7,QVQLVESGGGIVQAGGSLRLSCASSGSIFYWYAMGWYRQAPGKERELVAAISRSGGSTYYADSVKGRFTISRDNAKNTVYLQMNSLKPEDTAVYYCATELSYRHGYWGQGTQVTVSS,high polyreactivity
8,QVQLVESGGGIVQAGGSLRLSCDASGRIIGYYAMGWYRQAPGKERELVAAISRSGARTYYADSVKGRFTISRDNAKNTVYLQMNSLKPEDTAVYYCAAGPAPGHDSWGQGTQVTVSS,high polyreactivity
9,QVQLVESGGGIVQAGGSLRLSCSASGRNSGVNAMGSYRQAPGKERELVATISGSGGRTYYADSVKERFTISRDNAKNTVYLQMNSLKPEDTAVYYCNTLVQRGGYFSRGFDYWGQGTQVTVSS,low polyreactivity
10,QVQLVESGGGIVQAGGSLRLSFDASGFLFYSYAMGCYRQAPGKEREFVAAISWSGARTYYPDSVKGRFTISRDNAKNTVYLQMNSLKPEDTAVYYCIAVAFYPRSSRSWRLDYWGQGTQVTVSS,high polyreactivity
11,QVQLVESGGGIVQAGGSLRLSSAASGINFRYYAMGSSRPAPGKDRELVAVKSRDGTTYYADSVKGRFTISRDNAKNTVYLPMNSLKAADTAVYYCAKKAWVIYNRKFSSGYDYWGQGTQVNVSS,low polyreactivity
12,QVQLVESGGGIVQAGGSLRLSSAASGSIIFYYAMGWYRQPRGKEREFVAAITRSGVRTYYADSVKGRFTISRDNAKNTVYLQMNSLKPEDTAVYYCNDDYGFYRPVLMGFWGQGTQVTVSS,low polyreactivity
13,QVQLVESGGGIVQAGGSLRLTCAASGFIFWDYAMGWYRQAPGKERELVAAISDSGGDTYYADSVKGRFTISRDNAKNTVYLQMNSLNPEDTAVYYCASVVELWVFRGQQYDYWGQGTQVTVSS,low polyreactivity
14,QVQLVESGGGIVQAGGSLRLTCAASGRIFAWYAMGWYRQAPWKERELVASITWGGGRTYYADSVKGRFTISRDNAKNTVYLQMNCLKPEVTAVYYCAAYRYKEEAYLGVAQERDYWGQGTLVTVSS,low polyreactivity
15,QVQLVESGGGIVQARGSLRLSCAASGRIFAPYAMGWYRQAPGKERELVAAIRISGDSTYYADSVKGRFTISRDNAKNTVYLQMNSLKPHDTAVYYCAAEYYILHWFGYAGYPAYNYWGQGTQVTVSS,high polyreactivity
16,QVQLVESGGGIVQEGGSLRLSCAASGRTFNRYAMGWYRQAPGKERELVAAISWSGGRTYYADSVKGRFTISRDNAKNTVYLQMNSLIPEGTAVYYCAKEAYIRYDYWGQGTQVTVSS,low polyreactivity
17,QVQLVESGGGIVQSGGSLRLSCAASGSIFQPYAMGWYRQAPGQEREFVAAISRSGGITYYADSVKGRFTISRDNAKNTVYLQMYSLKPEDTAVYYCATGRQVVRSYSEGDYWGQGTQVTLSS,low polyreactivity
18,QVQLVESGGGKVQAGGSLRLICAASGSTFSSYAMGWYRQAPGKERELVAGISRGGSSTDYADSVKGRFTISRDNAKNTVYLQMNSLKPEDPAVYYCNAKVWWSFNGLEYDYWGQGTQVTVSS,low polyreactivity
19,QVQLVESGGGKVQAGGSLRLSCAASGFIFRYYAMGWYRQAPGKERELGAAISKRGGSTYYADSVKGRFTISRDNAKNTVYLQMNSLKADDTAVYYCARGYPIDPSFDTYDYWGQGTQVTVSS,high polyreactivity
20,QVQLVESGGGKVQAGGSLRLSCASSGFTYDSNAMGSYRQAPGKERELVAAISTGGSTYYADSVKGPFTISRDNANITVYLQMYSLKPEDTAVYYCARDPPYPDTWYGYWGQGTQVTVSS,low polyreactivity
21,QVQLVESGGGLAQAGCSLRLSCAASGRLFRGNAMGGYRQAPGKERELVARITGNDGDTYYADSVKGRFTISRDNAKNTVYLQMNSLKPEDTAVYYCATDTSSYRRRYYYWGQGTQVTVSS,low polyreactivity
22,QVQLVESGGGLAQAGGSLRLSCAASGRTFVTNAMGWYRQAPGKERELVAAISKSGGRTYYADSVKGRFTISRDNAKNTVYLQMNSLKPEDTAVYYCAADKRYLSYDYWGQGTQVTVSS,high polyreactivity

row,Sequence,polyreactivity (PSR sort gate)
1,QVQLVESGGGLAQAGGSLRLTCAASGSTFQIYAMGWYRPAPGKERELVAAITSSSSTNYADSVKGRFTISRDNAKNTVYLQMNRLKPEDTAVYYCAADVSWRSNWYDYWGLGTQVTVSS,low polyreactivity
2,QVQLVESGGGLDHAGGSLRLSCAASGFIFTPNAMGMYRQAPAKEREWVAAITSGGVTYYADSVKGRFTISRDNAKNTVYIQMNSLKPEGTAVYYCKKNHTGTVRDSIYGYWGQGNQVTVSS,high polyreactivity
3,QVQLVESGGGLDHAGGSLRLSCAASGITFKRYAMGWYRQAPGKERELVAAISDIGGRTYYADSVKGRFTISRDNAKNTVYLQMNSLKPEDTAVYYCAADYYSPVDWYYYWGQGTQVTVSS,high polyreactivity
4,QVQLVESGGGLDQAGGRLPLTCAASGLIFYDNMGWYRHAPGKERELVAAISSSGGSTSYADSVKGRFTISRDNAKNTVFLQMICLKPEDTAVYYCAADSYPAYLGFVGFDYWGQGTIVTVSS,low polyreactivity
5,QVQLVESGGGLDQAGGRLRLSCAASGITVGYNDMGRYRQARGKERELVAAINRGASTNYADSVKGRFTISRDNAKNTVYFQMNCLKPEDTAVYYCNADHRDTFIWVGLPHMDYWGQGTQVTVSS,low polyreactivity
6,QVQLVESGGGLDQAGGSHRLSCAASGFTFYPNAMGWYRQAPGKERELVASINSDGSTNYADSVKGRFTISRDNAKNTVYLPMNSLIPEDTAVYYCAAGYFWGRIKYYYWVQGTQVTVSS,high polyreactivity
7,QVQLVESGGGLDQAGGSLGLSCAASGFTFTGYTMGWYRQAPGKERELVATISGSGGNTYYADSVKGRFTISRDNAKNTVYLQMNSLKPEETAVYYCARRRSGPRVLYYYWGQGTQVTVSS,low polyreactivity
8,QVQLVESGGGLDQAGGSLPLSCAASGITSYVYAMRWYRQAPGKERELVASISWTGGNTYADSVKGRFTISRDNAKNTVYLPMNSLKPEDTAVYYCNAGRSWDYWYGYDYWGQGTQVTVSS,low polyreactivity
9,QVQLVESGGGLDQAGGSLRLICAASGSIFNGNAMGWYRQAPGKQRDLVAAITRRGGSTYYADSVKVRFTISRDNAKNTVYLQMNSLKPEDTAVYYCAAEDWLYKRPYKERIVQFYYWGQGTQVTVSS,low polyreactivity
10,QVQLVESGGGLDQAGGSLRLSCAASALIFSSYAMGWYRQAPGKERELVAAITGSGGRTYYADSVKGRFTISRDNAKNTVYLQMNSLKPEDTAVYYCAAKYPAPRYYTGYDYWGQGTQVTVSS,high polyreactivity
11,QVQLVESGGGLDQAGGSLRLSCAASGFIFFRYAMGWYRQAPRKEREMVAAISSSGGSTYYADSVKGRFTISRDNAKNTVYLQMNSLKPEDTAVYFCAAPRYPIFVGLGKDYWGQGTQVTVSS,high polyreactivity
12,QVQLVESGGGLDQAGGSLRLSCAASGFIFRYYTMGWYRQAPGKERELFATITSGGSTYYADSVKGRFTISRDNAKNTVYLQMNSLKPEDTAVYYCAKYHSLRRQYSKFRPTFDYWGQGTQVTVSS,high polyreactivity
13,QVQLVESGGGLDQAGGSLRLSCAASGFILGDYAMGWYRQAPGKERELVAAITSSGGSTYYADSVKGRFTISRDNAKNTVYFQMNSLKPEDTAVYYCNTVYVYGPEYDYWGQGTQVTVSS,high polyreactivity
14,QVQLVESGGGLDQAGGSLRLSCAASGFIYSWYAMGWYRQAPGKERELVAAISSSGVSTYYADSVKGRFTISRDNAKNTVYLQMNSLKPEDTAVYYCNAYGSVWDRGEYDYEYWGQGTQVTVSS,low polyreactivity
15,QVQLVESGGGLDQAGGSLRLSCAASGFTFDENAMGSYRQAPGINYSGASTYYADSVKGRFTISRDNAKNTVYLQMNSLKPEDTAVYYCAAEVVAQMNYWGQGTQVTVSW,low polyreactivity
16,QVQLVESGGGLDQAGGSLRLSCAASGFTFGYYAMGWYRQAPGKERELVATIDRGGGTSYADSVKGRFTISRDNAKNTVYLQMNSLKPEDTAVYYCNRAGYGAKARRYRSYWGQGTQVTVSS,high polyreactivity
17,QVQLVESGGGLDQAGGSLRLSCAASGFTFPLYAMGWYRQAPGKERELVAVISRSGGSTYYADSVKGRFTISRDNAKNTVYLQMNSLTPEDTAVYYCAARLVPRSPERGNYDYWGQGTQVTVSS,high polyreactivity
18,QVQLVESGGGLDQAGGSLRLSCAASGFTFPRYAMGWYRQAPGKERELVAAITLIGGSTYYADSVKGRFTISRDNAKNTVYLQMNSLKPEDTAVYYCAATDRKVGVYHSYYYWGQGTQVTVSS,low polyreactivity
19,QVQLVESGGGLDQAGGSLRLSCAASGFTFRRYAMGWYSQAPGKEREFVAAITTRGSNTYYADSVKGRFTISRDNAKNTVYLQMNSLKPEDTAVYYCAASYYPPGHYDYWGQGTQVTVSS,high polyreactivity
20,QVQLVESGGGLDQAGGSLRLSCAASGFTFTAYDMGWYRQAPGKVRELVAAINWSGSRTYYADSVKGRFTISRDNAKNTVYLQMNSLKPEDTAVYYCNTATSKSSYLHYDYWGQGTQVTVSS,high polyreactivity
21,QVQLVESGGGLDQAGGSLRLSCAASGFTFYSYVMGWYRQAPGKERELVAAITRGGSTYYADSVKGRFTISRDNAKNTVYLQMNSMKPDDTAVYYCAKRPSYGFNYWGQGTQVTVSS,low polyreactivity
